The results in this text go back to patent publication US20070281327A1 (published 2007).

For test [1], the target named is T1, human Mpl expressed on BaF3 cells (BaF3-human Mpl) (human, UniProt P40238 26-635).
T1 sequence (looked up): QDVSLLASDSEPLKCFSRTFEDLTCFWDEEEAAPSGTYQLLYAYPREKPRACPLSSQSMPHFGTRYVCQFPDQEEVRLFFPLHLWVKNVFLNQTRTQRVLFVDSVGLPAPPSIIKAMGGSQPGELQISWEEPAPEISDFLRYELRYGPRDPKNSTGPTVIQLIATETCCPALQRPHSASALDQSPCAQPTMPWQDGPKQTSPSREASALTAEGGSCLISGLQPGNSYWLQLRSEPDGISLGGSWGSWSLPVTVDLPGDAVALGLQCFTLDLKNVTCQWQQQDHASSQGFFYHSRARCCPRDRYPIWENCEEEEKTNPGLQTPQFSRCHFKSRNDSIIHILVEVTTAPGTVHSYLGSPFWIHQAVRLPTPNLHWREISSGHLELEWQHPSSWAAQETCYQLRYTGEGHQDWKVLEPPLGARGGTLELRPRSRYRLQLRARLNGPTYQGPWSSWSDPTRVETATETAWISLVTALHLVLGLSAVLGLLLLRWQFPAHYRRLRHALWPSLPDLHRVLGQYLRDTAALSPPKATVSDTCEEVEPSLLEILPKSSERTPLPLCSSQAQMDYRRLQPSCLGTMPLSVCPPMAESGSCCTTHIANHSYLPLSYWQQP
Briefly: cell-based or functional assay.

For test [2], the target named is T2, Human Mpl-IgG Fc fusion protein (hMpl-Fc) (human, UniProt P40238 26-491).
T2 construct: range 26-491; Expressed in CHO-DG44 cells with a 19-amino acid signal peptide from a human IgG H chain variable region, which is not part of the mature protein; No numbering scheme is named for Asp 216; also called shMPL-Fc; not shown: Fc region of human IgG-gamma1, a region downstream of Asp 216
T2 sequence: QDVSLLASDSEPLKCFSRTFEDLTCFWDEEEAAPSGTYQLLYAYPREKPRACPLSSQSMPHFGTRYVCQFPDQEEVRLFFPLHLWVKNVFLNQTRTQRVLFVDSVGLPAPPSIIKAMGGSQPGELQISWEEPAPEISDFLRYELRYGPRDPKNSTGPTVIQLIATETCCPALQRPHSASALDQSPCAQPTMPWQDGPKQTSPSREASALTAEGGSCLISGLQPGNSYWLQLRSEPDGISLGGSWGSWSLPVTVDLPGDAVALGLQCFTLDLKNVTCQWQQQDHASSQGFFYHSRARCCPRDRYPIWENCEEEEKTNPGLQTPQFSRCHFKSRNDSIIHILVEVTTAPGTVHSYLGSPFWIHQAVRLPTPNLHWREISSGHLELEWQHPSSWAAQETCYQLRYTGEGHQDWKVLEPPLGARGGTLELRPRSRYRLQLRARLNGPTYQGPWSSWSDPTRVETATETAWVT
In words: ELISA on plates coated with hMpl-Fc, IgG. (In an ELISA, binding on a coated surface is turned into a signal by an enzyme label.)

In test [3] the target is human Mpl expressed on BaF3 cells (BaF3-human Mpl) (human) (UniProt P40238). Briefly: cell-based or functional assay.
For test [4], the target named is T2, Human Mpl-IgG Fc fusion protein …. In words: ELISA on plates coated with hMpl-Fc, diabody detected by anti-FLAG M2. The procedure: (§1) The binding activity of anti-human Mpl single-chain antibody to hMPL-Fc was assessed using ELISA. After plates were coated with 0.5 μg/ml purified hMPL-Fc, blocking treatment was carried out using Diluent buffer. A purified product of VA130 was diluted to an appropriate concentration and added to the plates. Then, the plates were allowed to stand at room temperature for one hour. After washing with Rinse buffer, 1000-times-diluted ANTI-FLAG M2 Monoclonal Antibody (SIGMA-ALDRICH) was added. The plates were incubated at room temperature for one hour. Next, after washing with Rinse buffer, 1000-times-diluted Alkaline Phosphatase-labeled anti-mouse IgG antibody (Zymed) was added, and the plates were allowed to stand at room temperature for one hour. After washing with Rinse buffer, color development was achieved using SIGMA104 (SIGMA-ALDRICH) diluted to 1 mg/ml in substrate buffer. Color was developed for 15 minutes at room temperature and then absorbance was determined at 405 nm with Benchmark Plus.

The target is the same in test [5]. In words: ELISA on plates coated with hMpl-Fc, sc(Fv)2 detected by anti-FLAG M2. The procedure:
as §1

Broadly, the EC50 is the concentration giving half of the maximal effect. High values mean lower potency in that assay, low ones higher potency in that assay.

B1: VA130 IgG (mouse monoclonal anti-human Mpl antibody VA130) (antibody, V domains shown)
VH: QVQLQQSGPELVKPGASVKISCKASGYAFSSSWMNWVKQRPGKGLEWIGRIYPGDGDTNYNGKFKGKATLTADKSSSTAYIQLSSLTSEDSAVYFCARGYADYSFAYWGQGTLVTVSA
VL: DIVMTQAAPSVPVTPGESVSISCRSSKSLLHSNGNTYLYWFLQRPGQSPQLLIYRMSNLASGVPDRFSGSGSGTAFTLRISRVEAEDVGVYYCMQHLEYPYTFGSGTKLEIK
notes: Whole mouse IgG from a hybridoma; also called VA130 antibody; VA130 anti-human Mpl antibody
B1: in test [1], the “TPO-like agonist activity, BaF3-human Mpl proliferation (WST-8), EC50” value is more than 100 nM. In addition, the half-maximal effective concentration (EC50) in test [2] came out at 0.38 nM.

B2: VB16 IgG (mouse monoclonal anti-human Mpl antibody VB16) (antibody, V domains shown)
VH: QVQLQQPGTELVRPGASVKLSCKASGYTFTDYWVNWVKQRPGRGLEWIGRIHPYDSETHYNQKFKNKATLTVDKSSSTAYIQLSSLTSEDSAVYYCASGGWFASWGQGTLVTVSA
VL: DIVMTQAAPSVPVTPGESVSISCRSSKSLLYSNGNTYLYWFLQRPGQSPQLLIYRMSNLASGVPDRFSGSGSGTAFTLTISSVEAEDVGVYYCMQHLEYPYTFGSGTKLEIK
Consider B2, for which the EC50 in test [2] was 0.15 nM.

B3: VA130 diabody (VA130 single-chain Fv with a five-amino acid (Gly4Ser)1 linker, FLAG-tagged) (scFv)
scFv: QVQLQQSGPELVKPGASVKISCKASGYAFSSSWMNWVKQRPGKGLEWIGRIYPGDGDTNYNGKFKGKATLTADKSSSTAYIQLSSLTSEDSAVYFCARGYADYSFAYWGQGTLVTVSAGGGGSDIVMTQAAPSVPVTPGESVSISCRSSKSLLHSNGNTYLYWFLQRPGQSPQLLIYRMSNLASGVPDRFSGSGSGTAFTLRISRVEAEDVGVYYCMQHLEYPYTFGSGTKLEIKDYKDDDDK
notes: The order is VH-(Gly4Ser)1-VL-FLAG; also called VA130 db
B3 showed an Agonistic activity, Analysis using Baf-hMpl (EC50) in test [3] of 0.222 nM. In test [4], a half-maximal effect (EC50) was put at 0.11 nM.

B4: VA130 sc(Fv)2 (other)
chain: QVQLQQSGPELVKPGASVKISCKASGYAFSSSWMNWVKQRPGKGLEWIGRIYPGDGDTNYNGKFKGKATLTADKSSSTAYIQLSSLTSEDSAVYFCARGYADYSFAYWGQGTLVTVSAGGGGSGGGGSGGGGSDIVMTQAAPSVPVTPGESVSISCRSSKSLLHSNGNTYLYWFLQRPGQSPQLLIYRMSNLASGVPDRFSGSGSGTAFTLRISRVEAEDVGVYYCMQHLEYPYTFGSGTKLEIKGGGGSGGGGSGGGGSQVQLQQSGPELVKPGASVKISCKASGYAFSSSWMNWVKQRPGKGLEWIGRIYPGDGDTNYNGKFKGKATLTADKSSSTAYIQLSSLTSEDSAVYFCARGYADYSFAYWGQGTLVTVSAGGGGSGGGGSGGGGSDIVMTQAAPSVPVTPGESVSISCRSSKSLLHSNGNTYLYWFLQRPGQSPQLLIYRMSNLASGVPDRFSGSGSGTAFTLRISRVEAEDVGVYYCMQHLEYPYTFGSGTKLEIKDYKDDDDK
notes: A single polypeptide with two VH and two VL units from VA130; also called anti-human Mpl antibody sc(Fv)2; VA130 single-chain antibody
In test [5], B4 showed a half-maximal effective concentration (EC50) of 0.27 nM. For the same molecule, in test [3], the Agonistic activity, Analysis using Baf-hMpl (EC50) was determined as 1.02 nM.
